Measured values from patent US20140087995A1 (published 2014).
Numbered stars: 1 amine (or outer) side, 2 acyl side, 3 side chain; on linkers, the order of the positions; unused ones are H or OH. Bridge positions count the residues as written; N and C are the ends. Side chains are listed from the residue outwards. Ends that are not written are not given here. * marks the point of attachment. C20 diacid = O=C(O)CCCCCCCCCCCCCCCCCCC(=O)*; γGlu = O=C(O)[C@H](CCC(=O)[*:2])N[*:1]; AEEA = NCCOCCOCC(=O)O

Key:
[1] = biological target: T1, rat amylin receptor (rat calcitonin receptor + rat RAMP 3) (rat, UniProt P32214 25-516; Q9JJ73 23-147); assay: SPA competition with 125I-rat amylin, membranes of BHK cells with rat CTR + rat RAMP3 (Assay VI)
T1 construct: whole, on cells; Used as membranes prepared from BHK tk'ts 13 cells transiently transfected with rat calcitonin receptor and rat RAMP 3 (Assay VI); also called rAmylin-R; rat amylin 3(a) receptor
T1 sequence (looked up) 1: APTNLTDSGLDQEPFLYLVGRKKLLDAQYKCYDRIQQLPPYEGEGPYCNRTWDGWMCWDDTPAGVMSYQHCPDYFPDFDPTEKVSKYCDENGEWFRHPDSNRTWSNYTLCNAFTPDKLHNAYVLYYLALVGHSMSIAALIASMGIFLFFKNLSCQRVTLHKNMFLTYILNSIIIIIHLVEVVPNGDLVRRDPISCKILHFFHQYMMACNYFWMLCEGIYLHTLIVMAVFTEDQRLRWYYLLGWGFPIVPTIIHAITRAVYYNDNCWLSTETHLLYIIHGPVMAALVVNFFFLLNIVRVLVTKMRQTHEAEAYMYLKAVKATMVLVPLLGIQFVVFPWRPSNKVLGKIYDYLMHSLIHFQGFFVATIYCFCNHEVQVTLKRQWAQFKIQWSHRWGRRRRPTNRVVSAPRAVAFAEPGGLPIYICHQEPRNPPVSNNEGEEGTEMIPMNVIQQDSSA
T1 sequence (looked up) 2: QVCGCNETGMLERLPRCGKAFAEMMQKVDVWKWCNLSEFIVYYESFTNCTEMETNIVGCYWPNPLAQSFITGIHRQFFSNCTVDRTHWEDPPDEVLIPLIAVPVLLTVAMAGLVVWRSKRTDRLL

[2] = biological target: T2, human calcitonin receptor (human, UniProt P30988 25-474); assay: IC50 on human CTR divided by IC50 on human amylin receptor (Assays VII/V)
T2 construct: whole, on cells; Used as membranes prepared from a BHK tk'ts 13 cell line stably transfected with the human calcitonin receptor (Assay VII); also called hCTR; hCT
T2 sequence (looked up): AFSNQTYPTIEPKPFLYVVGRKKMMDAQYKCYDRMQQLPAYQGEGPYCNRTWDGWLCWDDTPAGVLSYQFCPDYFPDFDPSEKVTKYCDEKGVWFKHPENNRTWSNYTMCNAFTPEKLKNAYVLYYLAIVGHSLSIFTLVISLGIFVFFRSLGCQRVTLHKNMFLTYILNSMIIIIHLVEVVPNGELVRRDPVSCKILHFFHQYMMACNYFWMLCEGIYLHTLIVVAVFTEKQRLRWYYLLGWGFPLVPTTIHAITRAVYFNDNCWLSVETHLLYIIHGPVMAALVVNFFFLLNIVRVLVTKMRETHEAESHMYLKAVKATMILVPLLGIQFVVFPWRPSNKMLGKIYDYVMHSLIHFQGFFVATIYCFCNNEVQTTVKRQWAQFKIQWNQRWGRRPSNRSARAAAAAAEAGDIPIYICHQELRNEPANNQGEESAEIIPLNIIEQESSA
Procedure, shortened: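 Scintillation proximity competition binding on cell membranes at 35 ng/μL with SPA beads, in 50 mM Hepes pH 7.4, 1 mM CaCl2, 5 mM MgCl₂, 0.1% OA, 0.02% Tween20. Incubated 120 min at 25° C with shaking. IC₅₀ from one-site competition fit.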

rat calcitonin receptor [3] = biological target: T3, rat calcitonin receptor (rat, UniProt P32214 25-516); assay: IC50 on rat CTR divided by IC50 on rat amylin receptor (Assays VIII/VI)
T3 construct: whole, on cells; Used as membranes prepared from BHK tk'ts 13 cells transiently transfected with the rat calcitonin receptor (Assay VIII); also called rCTR; rat calcitonin (a) receptor
T3 sequence (looked up): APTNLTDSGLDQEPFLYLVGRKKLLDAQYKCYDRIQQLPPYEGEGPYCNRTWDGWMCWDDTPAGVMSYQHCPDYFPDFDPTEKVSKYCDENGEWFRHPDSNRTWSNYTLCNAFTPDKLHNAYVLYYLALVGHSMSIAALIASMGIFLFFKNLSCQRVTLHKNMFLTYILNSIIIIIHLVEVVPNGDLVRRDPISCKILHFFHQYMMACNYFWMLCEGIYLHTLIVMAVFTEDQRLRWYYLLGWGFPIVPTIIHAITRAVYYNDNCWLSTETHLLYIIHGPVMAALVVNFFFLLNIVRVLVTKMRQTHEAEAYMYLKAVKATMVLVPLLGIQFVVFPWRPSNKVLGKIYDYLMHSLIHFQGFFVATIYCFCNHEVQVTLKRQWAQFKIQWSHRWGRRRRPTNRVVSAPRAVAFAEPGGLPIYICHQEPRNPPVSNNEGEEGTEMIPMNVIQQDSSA

rat calcitonin receptor [4] = biological target: T3, rat calcitonin receptor; assay: SPA competition with 125I-calcitonin, membranes of BHK cells with rat CTR (Assay VIII)

Row | Binder | IC50 [1] | Ratio hCT/hAmylin binding [2] | Ratio rCT/rAmylin binding (rat calcitonin receptor [3]) | IC50 (rat calcitonin receptor [4])
1 | K([AEEA-γGlu-C20 diacid])RCNTATCATQRLANFLRHSSPNFGAIPSSTNVGSHTY-NH2 (disulfide 3-8; N-terminus assumed; SMILES CC[C@H](C)[C@H](NC(=O)[C@H](C)NC(=O)CNC(=O)[C@H](Cc1ccccc1)NC(=O)[C@H](CC(N)=O)NC(=O)[C@@H]1CCCN1C(=O)[C@H](CO)NC(=O)[C@H](CO)NC(=O)[C@H](Cc1c[nH]cn1)NC(=O)[C@H](CCCNC(=N)N)NC(=O)[C@H](CC(C)C)NC(=O)[C@H](Cc1ccccc1)NC(=O)[C@H](CC(N)=O)NC(=O)[C@H](C)NC(=O)[C@H](CC(C)C)NC(=O)[C@H](CCCNC(=N)N)NC(=O)[C@H](CCC(N)=O)NC(=O)[C@@H](NC(=O)[C@H](C)NC(=O)[C@@H]1CSSC[C@H](NC(=O)[C@H](CCCNC(=N)N)NC(=O)[C@@H](N)CCCCNC(=O)COCCOCCNC(=O)CC[C@H](NC(=O)CCCCCCCCCCCCCCCCCCC(=O)O)C(=O)O)C(=O)N[C@@H](CC(N)=O)C(=O)N[C@@H]([C@@H](C)O)C(=O)N[C@@H](C)C(=O)N[C@@H]([C@@H](C)O)C(=O)N1)[C@@H](C)O)C(=O)N1CCC[C@H]1C(=O)N[C@@H](CO)C(=O)N[C@@H](CO)C(=O)N[C@H](C(=O)N[C@@H](CC(N)=O)C(=O)N[C@H](C(=O)NCC(=O)N[C@@H](CO)C(=O)N[C@@H](Cc1c[nH]cn1)C(=O)N[C@H](C(=O)N[C@@H](Cc1ccc(O)cc1)C(N)=O)[C@@H](C)O)C(C)C)[C@@H](C)O, Analogue of human amylin; also called compound 45) | 0.623 nM | 26.8 | 67.1 | 41.8 nM
2 | K([γGlu-C20 diacid])RCNTATCATQRLANFLRHSSPNFGAIPSSTNVGSHTY-NH2 (disulfide 3-8; N-terminus assumed; SMILES CC[C@H](C)[C@H](NC(=O)[C@H](C)NC(=O)CNC(=O)[C@H](Cc1ccccc1)NC(=O)[C@H](CC(N)=O)NC(=O)[C@@H]1CCCN1C(=O)[C@H](CO)NC(=O)[C@H](CO)NC(=O)[C@H](Cc1c[nH]cn1)NC(=O)[C@H](CCCNC(=N)N)NC(=O)[C@H](CC(C)C)NC(=O)[C@H](Cc1ccccc1)NC(=O)[C@H](CC(N)=O)NC(=O)[C@H](C)NC(=O)[C@H](CC(C)C)NC(=O)[C@H](CCCNC(=N)N)NC(=O)[C@H](CCC(N)=O)NC(=O)[C@@H](NC(=O)[C@H](C)NC(=O)[C@@H]1CSSC[C@H](NC(=O)[C@H](CCCNC(=N)N)NC(=O)[C@@H](N)CCCCNC(=O)CC[C@H](NC(=O)CCCCCCCCCCCCCCCCCCC(=O)O)C(=O)O)C(=O)N[C@@H](CC(N)=O)C(=O)N[C@@H]([C@@H](C)O)C(=O)N[C@@H](C)C(=O)N[C@@H]([C@@H](C)O)C(=O)N1)[C@@H](C)O)C(=O)N1CCC[C@H]1C(=O)N[C@@H](CO)C(=O)N[C@@H](CO)C(=O)N[C@H](C(=O)N[C@@H](CC(N)=O)C(=O)N[C@H](C(=O)NCC(=O)N[C@@H](CO)C(=O)N[C@@H](Cc1c[nH]cn1)C(=O)N[C@H](C(=O)N[C@@H](Cc1ccc(O)cc1)C(N)=O)[C@@H](C)O)C(C)C)[C@@H](C)O, Analogue of human amylin; also called compound 44) | 0.369 nM | 17.7 | 53.3 | 19.6 nM
3 | {C20 diacid-γGlu}-GRCNTATCATQRLANFLRHSSPNFGAIPSSTNVGSNTY-NH2 (disulfide 3-8; SMILES CC[C@H](C)[C@H](NC(=O)[C@H](C)NC(=O)CNC(=O)[C@H](Cc1ccccc1)NC(=O)[C@H](CC(N)=O)NC(=O)[C@@H]1CCCN1C(=O)[C@H](CO)NC(=O)[C@H](CO)NC(=O)[C@H](Cc1c[nH]cn1)NC(=O)[C@H](CCCNC(=N)N)NC(=O)[C@H](CC(C)C)NC(=O)[C@H](Cc1ccccc1)NC(=O)[C@H](CC(N)=O)NC(=O)[C@H](C)NC(=O)[C@H](CC(C)C)NC(=O)[C@H](CCCNC(=N)N)NC(=O)[C@H](CCC(N)=O)NC(=O)[C@@H](NC(=O)[C@H](C)NC(=O)[C@@H]1CSSC[C@H](NC(=O)[C@H](CCCNC(=N)N)NC(=O)CNC(=O)CC[C@H](NC(=O)CCCCCCCCCCCCCCCCCCC(=O)O)C(=O)O)C(=O)N[C@@H](CC(N)=O)C(=O)N[C@@H]([C@@H](C)O)C(=O)N[C@@H](C)C(=O)N[C@@H]([C@@H](C)O)C(=O)N1)[C@@H](C)O)C(=O)N1CCC[C@H]1C(=O)N[C@@H](CO)C(=O)N[C@@H](CO)C(=O)N[C@H](C(=O)N[C@@H](CC(N)=O)C(=O)N[C@H](C(=O)NCC(=O)N[C@@H](CO)C(=O)N[C@@H](CC(N)=O)C(=O)N[C@H](C(=O)N[C@@H](Cc1ccc(O)cc1)C(N)=O)[C@@H](C)O)C(C)C)[C@@H](C)O, Analogue of human amylin; also called compound 46) [N^-1-[(4S)-4-carboxy-4-(19-carboxynonadecanoylamino)butanoyl]-Gly[Arg1,Arg17,Pro21,Pro27]-h-amylin] | 0.33 nM | 48.9 | 142 | 46.8 nM
4 | {C20 diacid-γGlu}-GRCNTATCATQRLANFLRHSSPNFGAIPSSTNVGSHTY-NH2 (disulfide 3-8; SMILES CC[C@H](C)[C@H](NC(=O)[C@H](C)NC(=O)CNC(=O)[C@H](Cc1ccccc1)NC(=O)[C@H](CC(N)=O)NC(=O)[C@@H]1CCCN1C(=O)[C@H](CO)NC(=O)[C@H](CO)NC(=O)[C@H](Cc1c[nH]cn1)NC(=O)[C@H](CCCNC(=N)N)NC(=O)[C@H](CC(C)C)NC(=O)[C@H](Cc1ccccc1)NC(=O)[C@H](CC(N)=O)NC(=O)[C@H](C)NC(=O)[C@H](CC(C)C)NC(=O)[C@H](CCCNC(=N)N)NC(=O)[C@H](CCC(N)=O)NC(=O)[C@@H](NC(=O)[C@H](C)NC(=O)[C@@H]1CSSC[C@H](NC(=O)[C@H](CCCNC(=N)N)NC(=O)CNC(=O)CC[C@H](NC(=O)CCCCCCCCCCCCCCCCCCC(=O)O)C(=O)O)C(=O)N[C@@H](CC(N)=O)C(=O)N[C@@H]([C@@H](C)O)C(=O)N[C@@H](C)C(=O)N[C@@H]([C@@H](C)O)C(=O)N1)[C@@H](C)O)C(=O)N1CCC[C@H]1C(=O)N[C@@H](CO)C(=O)N[C@@H](CO)C(=O)N[C@H](C(=O)N[C@@H](CC(N)=O)C(=O)N[C@H](C(=O)NCC(=O)N[C@@H](CO)C(=O)N[C@@H](Cc1c[nH]cn1)C(=O)N[C@H](C(=O)N[C@@H](Cc1ccc(O)cc1)C(N)=O)[C@@H](C)O)C(C)C)[C@@H](C)O, Analogue of human amylin; also called compound 47) | 0.203 nM | 44.9 | 84.3 | 17.1 nM
